Tested on: Escherichia coli TOP10
Assay: shrunken log2 fold change of peptide-encoding DNA abundance (4.5 h post-induction vs induction); higher = less antimicrobial activity (less host growth inhibition)
Conditions: time post-induction: 4.5 h; library: site-saturation at positions 5, 18, 19, 20
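Further: peptides expressed intracellularly from a pBAD plasmid library in pooled LB shake-flask culture, induced with 0.3% L-arabinose, DNA abundance read by NGS, three biological replicates, DESeq2 with apeglm shrinkage.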

RRIRVRPPRLPRPRPRPCNRPRP and RRIRVRPPRLPRPRPRPCPAPRP are within 0.2 log units of each other in “shrunken log2 fold change” value: -0.0287 for the first, -0.121 for the second.

Compared with RRIRVRPPRLPRPRPRPCPCPRP, RRIRVRPPRLPRPRPRPCPRPRP is higher in “shrunken log2 fold change” value: -0.151 for the first, 0.368 for the second.

RRIRVRPPRLPRPRPRPCQFPRP and RRIRVRPPRLPRPRPRPCQKPRP are within 0.2 log units of each other in “shrunken log2 fold change” value: 0.143 for the first, -0.0265 for the second.

Going from RRIRVRPPRLPRPRPRPCQLPRP to RRIRVRPPRLPRPRPRPCQSPRP, the “shrunken log2 fold change” value rises from -0.202 to 0.0215.

First: RRIRVRPPRLPRPRPRPCQYPRP
Second: RRIRVRPPRLPRPRPRPCRGPRP
The “shrunken log2 fold change” value of the first is lower: -0.53 for the first, 1.11 for the second.

Going from RRIRVRPPRLPRPRPRPCSSPRP to RRIRVRPPRLPRPRPRPCVVPRP, the “shrunken log2 fold change” value rises from -0.201 to 0.0226.

RRIRVRPPRLPRPRPRPCYWPRP and RRIRVRPPRLPRPRPRPDAYPRP are within 0.2 log units of each other in “shrunken log2 fold change” value: -0.0621 for the first, -0.056 for the second.

RRIRVRPPRLPRPRPRPDCMPRP and RRIRVRPPRLPRPRPRPDDQPRP are within 0.2 log units of each other in “shrunken log2 fold change” value: 0.116 for the first, -0.00455 for the second.

RRIRVRPPRLPRPRPRPDETPRP and RRIRVRPPRLPRPRPRPDEVPRP are within 0.2 log units of each other in “shrunken log2 fold change” value: 0.126 for the first, 0.0201 for the second.

First: RRIRVRPPRLPRPRPRPDGNPRP
Second: RRIRVRPPRLPRPRPRPDHHPRP
The “shrunken log2 fold change” value of the first is higher: -0.189 for the first, -0.392 for the second.

RRIRVRPPRLPRPRPRPDHIPRP and RRIRVRPPRLPRPRPRPDHVPRP are within 0.2 log units of each other in “shrunken log2 fold change” value: -0.206 for the first, -0.0193 for the second.

Going from RRIRVRPPRLPRPRPRPDILPRP to RRIRVRPPRLPRPRPRPDINPRP, the “shrunken log2 fold change” value falls from 0.3 to -0.00784.

RRIRVRPPRLPRPRPRPDIRPRP and RRIRVRPPRLPRPRPRPDKDPRP are within 0.2 log units of each other in “shrunken log2 fold change” value: -0.179 for the first, -0.337 for the second.

RRIRVRPPRLPRPRPRPDKVPRP and RRIRVRPPRLPRPRPRPDLPPRP are within 0.2 log units of each other in “shrunken log2 fold change” value: -0.332 for the first, -0.377 for the second.

Compared with RRIRVRPPRLPRPRPRPDLTPRP, RRIRVRPPRLPRPRPRPDMVPRP is higher in “shrunken log2 fold change” value: -0.263 for the first, -0.0411 for the second.

Compared with RRIRVRPPRLPRPRPRPDPRPRP, RRIRVRPPRLPRPRPRPDPTPRP is lower in “shrunken log2 fold change” value: 0.395 for the first, 0.106 for the second.

RRIRVRPPRLPRPRPRPDQAPRP and RRIRVRPPRLPRPRPRPDQSPRP are within 0.2 log units of each other in “shrunken log2 fold change” value: -0.038 for the first, -0.053 for the second.

Compared with RRIRVRPPRLPRPRPRPDRAPRP, RRIRVRPPRLPRPRPRPDRTPRP is lower in “shrunken log2 fold change” value: -0.0118 for the first, -0.252 for the second.

First: RRIRVRPPRLPRPRPRPDSKPRP
Second: RRIRVRPPRLPRPRPRPDSMPRP
The “shrunken log2 fold change” value of the first is lower: -0.34 for the first, -0.103 for the second.

RRIRVRPPRLPRPRPRPDSVPRP and RRIRVRPPRLPRPRPRPDTAPRP are within 0.2 log units of each other in “shrunken log2 fold change” value: -0.28 for the first, -0.164 for the second.

RRIRVRPPRLPRPRPRPDVSPRP and RRIRVRPPRLPRPRPRPDVWPRP are within 0.2 log units of each other in “shrunken log2 fold change” value: -0.0827 for the first, -0.0858 for the second.

RRIRVRPPRLPRPRPRPDWIPRP and RRIRVRPPRLPRPRPRPDYIPRP are within 0.2 log units of each other in “shrunken log2 fold change” value: -0.218 for the first, -0.381 for the second.

Going from RRIRVRPPRLPRPRPRPDYPPRP to RRIRVRPPRLPRPRPRPEAAPRP, the “shrunken log2 fold change” value rises from -0.177 to 0.635.

First: RRIRVRPPRLPRPRPRPEACPRP
Second: RRIRVRPPRLPRPRPRPECAPRP
The “shrunken log2 fold change” value of the first is lower: 0.11 for the first, 0.376 for the second.

RRIRVRPPRLPRPRPRPECQPRP and RRIRVRPPRLPRPRPRPECTPRP are within 0.2 log units of each other in “shrunken log2 fold change” value: 0.353 for the first, 0.464 for the second.

RRIRVRPPRLPRPRPRPEDEPRP and RRIRVRPPRLPRPRPRPEDHPRP are within 0.2 log units of each other in “shrunken log2 fold change” value: 0.138 for the first, -0.021 for the second.

RRIRVRPPRLPRPRPRPEDSPRP and RRIRVRPPRLPRPRPRPEDVPRP are within 0.2 log units of each other in “shrunken log2 fold change” value: 0.0654 for the first, 0.0203 for the second.

First: RRIRVRPPRLPRPRPRPEGWPRP
Second: RRIRVRPPRLPRPRPRPEHPPRP
The “shrunken log2 fold change” value of the first is higher: 0.762 for the first, 0.0168 for the second.

Going from RRIRVRPPRLPRPRPRPEHVPRP to RRIRVRPPRLPRPRPRPEIYPRP, the “shrunken log2 fold change” value falls from 0.0447 to -0.348.

First: RRIRVRPPRLPRPRPRPEKPPRP
Second: RRIRVRPPRLPRPRPRPELGPRP
The “shrunken log2 fold change” value of the first is lower: 0.00308 for the first, 0.308 for the second.

RRIRVRPPRLPRPRPRPEMDPRP and RRIRVRPPRLPRPRPRPEPNPRP are within 0.2 log units of each other in “shrunken log2 fold change” value: 0.111 for the first, 0.19 for the second.

First: RRIRVRPPRLPRPRPRPEPPPRP
Second: RRIRVRPPRLPRPRPRPEQAPRP
The “shrunken log2 fold change” value of the first is higher: 0.664 for the first, 0.358 for the second.

RRIRVRPPRLPRPRPRPEQIPRP and RRIRVRPPRLPRPRPRPESIPRP are within 0.2 log units of each other in “shrunken log2 fold change” value: -0.0137 for the first, -0.149 for the second.

Going from RRIRVRPPRLPRPRPRPESYPRP to RRIRVRPPRLPRPRPRPETDPRP, the “shrunken log2 fold change” value falls from 0.45 to 0.023.

RRIRVRPPRLPRPRPRPETKPRP and RRIRVRPPRLPRPRPRPEWLPRP are within 0.2 log units of each other in “shrunken log2 fold change” value: 0.242 for the first, 0.0685 for the second.

RRIRVRPPRLPRPRPRPEYWPRP and RRIRVRPPRLPRPRPRPFCHPRP are within 0.2 log units of each other in “shrunken log2 fold change” value: -0.161 for the first, -0.264 for the second.

First: RRIRVRPPRLPRPRPRPFCIPRP
Second: RRIRVRPPRLPRPRPRPFCVPRP
The “shrunken log2 fold change” value of the first is lower: -0.447 for the first, -0.0102 for the second.

First: RRIRVRPPRLPRPRPRPFDAPRP
Second: RRIRVRPPRLPRPRPRPFDEPRP
The “shrunken log2 fold change” value of the first is higher: 0.0132 for the first, -0.242 for the second.

RRIRVRPPRLPRPRPRPFDSPRP and RRIRVRPPRLPRPRPRPFEVPRP are within 0.2 log units of each other in “shrunken log2 fold change” value: -0.204 for the first, -0.164 for the second.

Compared with RRIRVRPPRLPRPRPRPFFAPRP, RRIRVRPPRLPRPRPRPFFSPRP is lower in “shrunken log2 fold change” value: 0.238 for the first, -0.371 for the second.

RRIRVRPPRLPRPRPRPFGCPRP and RRIRVRPPRLPRPRPRPFHAPRP are within 0.2 log units of each other in “shrunken log2 fold change” value: -0.19 for the first, -0.229 for the second.

RRIRVRPPRLPRPRPRPFHQPRP and RRIRVRPPRLPRPRPRPFHRPRP are within 0.2 log units of each other in “shrunken log2 fold change” value: 0.032 for the first, -0.0437 for the second.

First: RRIRVRPPRLPRPRPRPFIPPRP
Second: RRIRVRPPRLPRPRPRPFKQPRP
The “shrunken log2 fold change” value of the first is lower: -0.535 for the first, -0.0195 for the second.

Compared with RRIRVRPPRLPRPRPRPFLCPRP, RRIRVRPPRLPRPRPRPFMQPRP is lower in “shrunken log2 fold change” value: -0.0159 for the first, -0.285 for the second.

First: RRIRVRPPRLPRPRPRPFMSPRP
Second: RRIRVRPPRLPRPRPRPFNWPRP
The “shrunken log2 fold change” value of the first is higher: 0.0334 for the first, -0.498 for the second.

First: RRIRVRPPRLPRPRPRPFPCPRP
Second: RRIRVRPPRLPRPRPRPFPQPRP
The “shrunken log2 fold change” value of the first is higher: -0.00113 for the first, -0.312 for the second.

RRIRVRPPRLPRPRPRPFQDPRP and RRIRVRPPRLPRPRPRPFRVPRP are within 0.2 log units of each other in “shrunken log2 fold change” value: -0.0723 for the first, -0.266 for the second.

RRIRVRPPRLPRPRPRPFSRPRP and RRIRVRPPRLPRPRPRPFSYPRP are within 0.2 log units of each other in “shrunken log2 fold change” value: -0.0787 for the first, -0.012 for the second.

First: RRIRVRPPRLPRPRPRPFTDPRP
Second: RRIRVRPPRLPRPRPRPFTKPRP
The “shrunken log2 fold change” value of the first is higher: 0.0809 for the first, -0.79 for the second.

Going from RRIRVRPPRLPRPRPRPFYMPRP to RRIRVRPPRLPRPRPRPFYVPRP, the “shrunken log2 fold change” value rises from -0.136 to 1.07.

Going from RRIRVRPPRLPRPRPRPFYYPRP to RRIRVRPPRLPRPRPRPGALPRP, the “shrunken log2 fold change” value rises from -0.556 to 0.0362.

RRIRVRPPRLPRPRPRPGAWPRP and RRIRVRPPRLPRPRPRPGCSPRP are within 0.2 log units of each other in “shrunken log2 fold change” value: 0.323 for the first, 0.186 for the second.

Going from RRIRVRPPRLPRPRPRPGDQPRP to RRIRVRPPRLPRPRPRPGDRPRP, the “shrunken log2 fold change” value rises from 0.0324 to 0.365.

Compared with RRIRVRPPRLPRPRPRPGERPRP, RRIRVRPPRLPRPRPRPGFFPRP is lower in “shrunken log2 fold change” value: 0.674 for the first, 0.0758 for the second.

In the case of RRIRVRPPRLPRPRPRPGGYPRP, the “shrunken log2 fold change” value was 0.0682.

From the supplement of paper PMC9112550, “Optimization of the antimicrobial peptide Bac7 by deep mutational scanning” (BMC Biology, 2022)
